B1: F1*; the commonest letter at each place (parent)
chain: GAGACCGCAACTGAAAAGTTGTTATCACTTGTCGTAAGACACTTTGGATGGGTTGAAGTTCTGCACGTAGAAGCAAAAGGC

Variants of: B1
Assay: fraction ligated after 30 min (ligated reads / total reads); higher = more ligase activity
Conditions: with F1*sub RNA substrate (template-directed ligation), 42 °C
Procedure: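 Chip-synthesised pool of F1* ligase ribozyme variants (all single and double substitutions, single, double and triple deletions in the catalytic core and GAA bulge, plus designed variants) was transcribed with T7 and reacted as a pool with excess substrate F1*sub for 30 min at 42 C in 50 mM EPPS pH 8.5, 25 mM MgCl2. Ligated and unligated bands were separated by PAGE, barcoded by RT and deep sequenced; fraction ligated = ligated reads / total reads per variant, relative activity = FL / FL of wild type (0.826). Sequences are the DNA template of the ribozyme.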
T29G A37C showed a fraction ligated of 0.814.
Work on T29G A37G yielded a fraction ligated of 0.832.
T29G A37T gave a fraction ligated of 0.828.
With T29G G50T the fraction ligated was 0.683.
Work on T29G G50C yielded a fraction ligated of 0.243.
Work on T29G G50A yielded a fraction ligated of 0.345.
T29G G34C showed a fraction ligated of 0.808.
For T29G G34A, the fraction ligated was 0.824.
T29G G34T was tested, and the fraction ligated was 0.83.
With T29A T45C the fraction ligated was 0.651.
Variant T29A T45G has a fraction ligated of 0.475.
Variant T29A T45A has a fraction ligated of 0.774.
T29C T32A was tested, and the fraction ligated was 0.804.
With T29C T32C the fraction ligated was 0.764.
For T29C T32G, the fraction ligated was 0.794.
T29C A57G gave a fraction ligated of 0.855.
Work on T29C A57C yielded a fraction ligated of 0.797.
Work on T29C A57T yielded a fraction ligated of 0.774.
T29C A37G gave a fraction ligated of 0.824.
For T29C A37T, the fraction ligated was 0.833.
For T29C A37C, the fraction ligated was 0.828.
Variant T29C G46A has a fraction ligated of 0.804.
Work on T29C G46T yielded a fraction ligated of 0.779.
Variant T29C G46C has a fraction ligated of 0.775.
With T29C A39C the fraction ligated was 0.819.
T29C A39G showed a fraction ligated of 0.824.
Variant T29C A39T has a fraction ligated of 0.807.
For T29G G38T, the fraction ligated was 0.855.
T29G G38C showed a fraction ligated of 0.844.
With T29G G38A the fraction ligated was 0.844.
With T29C T44A the fraction ligated was 0.802.
With T29C T44C the fraction ligated was 0.822.
For T29C T44G, the fraction ligated was 0.848.
In the case of T29A T32A, the fraction ligated is reported as 0.869.
Work on T29A T32G yielded a fraction ligated of 0.842.
T29A T32C gave a fraction ligated of 0.774.
In the case of T29A T43A, the fraction ligated is reported as 0.84.
T29A T43C was tested, and the fraction ligated was 0.804.
With T29A T43G the fraction ligated was 0.85.
T29C C33T gave a fraction ligated of 0.816.
In the case of T29C C33G, the fraction ligated is reported as 0.827.
Work on T29C C33A yielded a fraction ligated of 0.824.
T29A T49C showed a fraction ligated of 0.66.
Work on T29A T49G yielded a fraction ligated of 0.789.
T29A T49A showed a fraction ligated of 0.784.
Variant T29C G50T has a fraction ligated of 0.41.
With T29C G50C the fraction ligated was 0.112.
In the case of T29C G50A, the fraction ligated is reported as 0.116.
T29G T32A showed a fraction ligated of 0.821.
Work on T29A G34T yielded a fraction ligated of 0.842.
In the case of T29A G34C, the fraction ligated is reported as 0.816.
T29G C33A gave a fraction ligated of 0.85.
T29G C33T gave a fraction ligated of 0.808.
With T29G C33G the fraction ligated was 0.865.
T29C G31C gave a fraction ligated of 0.804.
Variant T29C G31T has a fraction ligated of 0.755.
Variant T29C G31A has a fraction ligated of 0.796.
T29C T35A showed a fraction ligated of 0.843.
T29C T35G gave a fraction ligated of 0.831.
T29C T35C showed a fraction ligated of 0.801.
Variant T29C T43C has a fraction ligated of 0.802.
T29C T43A was tested, and the fraction ligated was 0.839.
For T29C T43G, the fraction ligated was 0.815.
With T29G A48G the fraction ligated was 0.805.
T29G A48T was tested, and the fraction ligated was 0.773.
With T29G A48C the fraction ligated was 0.756.
For T29G C40A, the fraction ligated was 0.84.
T29G C40T gave a fraction ligated of 0.809.
In the case of T29G C40G, the fraction ligated is reported as 0.83.
Variant T29G G31T has a fraction ligated of 0.835.
Work on T29G G31A yielded a fraction ligated of 0.836.
Work on T29G G31C yielded a fraction ligated of 0.804.
For T29G A57T, the fraction ligated was 0.811.
T29G A57G was tested, and the fraction ligated was 0.776.
T29G A57C was tested, and the fraction ligated was 0.765.
With T29A G38C the fraction ligated was 0.851.
In the case of T29A G38A, the fraction ligated is reported as 0.85.
T29A G38T showed a fraction ligated of 0.87.
Variant T29C G47C has a fraction ligated of 0.264.
With T29C G47A the fraction ligated was 0.793.
With T29C G47T the fraction ligated was 0.508.
Variant T29G G46C has a fraction ligated of 0.786.
Variant T29G G46T has a fraction ligated of 0.805.
T29G G46A showed a fraction ligated of 0.832.
Variant T29C A41T has a fraction ligated of 0.788.
T29C A41G was tested, and the fraction ligated was 0.766.
For T29C A41C, the fraction ligated was 0.768.
T29G A41T gave a fraction ligated of 0.833.
T29G A41C was tested, and the fraction ligated was 0.83.
T29G A41G showed a fraction ligated of 0.815.
T29C T49A showed a fraction ligated of 0.62.
In the case of T29C T49C, the fraction ligated is reported as 0.104.
For T29C T49G, the fraction ligated was 0.66.
In the case of T29C G38A, the fraction ligated is reported as 0.803.
T29C G38T showed a fraction ligated of 0.816.
With T29C G38C the fraction ligated was 0.828.
With T29C G55C the fraction ligated was 0.638.
T29C G55A was tested, and the fraction ligated was 0.815.
For T29C G55T, the fraction ligated was 0.765.
Work on T29A G47T yielded a fraction ligated of 0.473.
T29A G47A showed a fraction ligated of 0.804.
T29A G47C was tested, and the fraction ligated was 0.249.
T29C A36T was tested, and the fraction ligated was 0.834.
In the case of T29C A36C, the fraction ligated is reported as 0.821.
T29C A36G was tested, and the fraction ligated was 0.841.
In the case of T29C A56G, the fraction ligated is reported as 0.788.
In the case of T29C A56C, the fraction ligated is reported as 0.758.
Work on T29C A56T yielded a fraction ligated of 0.795.
With T29A T44C the fraction ligated was 0.825.
In the case of T29A T44A, the fraction ligated is reported as 0.833.
In the case of T29A T44G, the fraction ligated is reported as 0.812.
In the case of T29C G34A, the fraction ligated is reported as 0.827.
With T29C G34T the fraction ligated was 0.823.
In the case of T29C G34C, the fraction ligated is reported as 0.793.
T29G G47C showed a fraction ligated of 0.696.
Work on T29G G47T yielded a fraction ligated of 0.738.
T29G G47A showed a fraction ligated of 0.816.
Work on T29C C42T yielded a fraction ligated of 0.828.
T29C C42A showed a fraction ligated of 0.85.
For T29C C42G, the fraction ligated was 0.818.
In the case of T29G T30G, the fraction ligated is reported as 0.844.
For T29G T30A, the fraction ligated was 0.823.
T29G T30C showed a fraction ligated of 0.828.
Variant T29G A56G has a fraction ligated of 0.749.
Variant T29G A56T has a fraction ligated of 0.793.
T29G A56C gave a fraction ligated of 0.787.
With T29A G55T the fraction ligated was 0.788.
T29A G55C showed a fraction ligated of 0.79.
T29A G55A gave a fraction ligated of 0.84.
T29C A48T was tested, and the fraction ligated was 0.592.
Work on T29C A48C yielded a fraction ligated of 0.745.
Work on T29C A48G yielded a fraction ligated of 0.389.
T29G A36C gave a fraction ligated of 0.825.
For T29G A36G, the fraction ligated was 0.823.
With T29G A36T the fraction ligated was 0.826.
In the case of T29C T45C, the fraction ligated is reported as 0.471.
Work on T29C T45A yielded a fraction ligated of 0.554.
T29C T45G gave a fraction ligated of 0.239.
In the case of T29A G50A, the fraction ligated is reported as 0.295.
T29A G50T was tested, and the fraction ligated was 0.585.
Work on T29A G50C yielded a fraction ligated of 0.195.
With T29G C42T the fraction ligated was 0.83.
In the case of T29G C42G, the fraction ligated is reported as 0.839.
T29G C42A gave a fraction ligated of 0.813.
In the case of T29A G46C, the fraction ligated is reported as 0.779.
With T29A G46T the fraction ligated was 0.793.
T29A G46A showed a fraction ligated of 0.808.
T29A T30A was tested, and the fraction ligated was 0.86.
In the case of T29A T30G, the fraction ligated is reported as 0.828.
Work on T29A T30C yielded a fraction ligated of 0.856.
For T29G G55A, the fraction ligated was 0.79.
With T29G G55T the fraction ligated was 0.792.
T29G G55C was tested, and the fraction ligated was 0.584.
T29A T35G was tested, and the fraction ligated was 0.834.
For T29A T35C, the fraction ligated was 0.828.
T29A T35A showed a fraction ligated of 0.821.
In the case of T29C, the fraction ligated is reported as 0.824.
Variant T29G has a fraction ligated of 0.829.
With T29C T30A the fraction ligated was 0.796.
T29C T30C was tested, and the fraction ligated was 0.782.
With T29C T30G the fraction ligated was 0.805.
T29G A39C showed a fraction ligated of 0.822.
T29G A39G gave a fraction ligated of 0.819.
T29G A39T gave a fraction ligated of 0.822.
For T29C C40T, the fraction ligated was 0.818.
In the case of T29C C40A, the fraction ligated is reported as 0.791.
With T29C C40G the fraction ligated was 0.824.
